Experimental data as given in patent US20100233191A1.

Target: MPP1 (proaerolysin with the furin site replaced by the PSA substrate HSSKLQ) (Aeromonas hydrophila) (UniProt P09167)
Assay: cell-based or functional assay

## Prostate-specific antigen (PSA), also referred as hK3 (from UniProt P07288 25-261) (enzyme)
  LD50 (cell killing, Trypan Blue exclusion, PSA-producing LNCaP cells, 24 h): 100 pM
  fold difference in toxicity, PSA-producing versus non-PSA producing cells: 500 fold
